Assay results published in patent US12303551B2, “Cellular immunotherapy compositions and uses thereof” (CERO THERPEUTICS HOLDINGS, INC., priority 2018, dated 2025).

System: SCC152 cells
Assay: Elimination of GFP-expressing SCC152 target cells over time (quantification and time lapse imaging)
Format: cell-based
Settings: for elimination of SCC152 cells, time lapse imaging: 0 to 36 hrs, compared to the control; for elimination of SCC152 cells (GFP quantification): by 36 hrs, 1:1:1 ratio (CD8:CD4:target cell), compared to control; for number of SCC152 cells in time lapse imaging: 96-well co-culture, CD8+/E7 TCR + CD4+/CER + SCC152 1:1:1, compared to control
In short: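 GFP-labelled SCC152 (HPV16+) target cells were co-cultured at 1:1:1 with CD8+ T cells carrying an HPV16 E7 TCR and with CD4+ T cells transduced with a chimeric CER or a control. Remaining target cells were counted by fluorescence imaging and automated software at 0, 12, 24, 36 h or 0, 24, 48 h.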

B1: CER117: Chimeric engulfment receptor: Tim4 binding, Tim4 transmembrane, TLR8 and TRAF6 signaling; SEQ ID NO: 153 (protein)
chain: MSKGLLLLWLVTELWWLYLTPAASEDTIIGFLGQPVTLPCHYLSWSQSRNSMCWGKGSCPNSKCNAELLRTDGTRIISRKSTKYTLLGKVQFGEVSLTISNTNRGDSGVYCCRIEVPGWFNDVKKNVRLELRRATTTKKPTTTTRPTTTPYVTTTTPELLPTTVMTTSVLPTTTPPQTLATTAFSTAVTTCPSTTPGSFSQETTKGSAFTTESETLPASNHSQRSMMTISTDIAVLRPTGSNPGILPSTSQLTTQKTTLTTSESLQKTTKSHQINSRQTILIIACCVGFVLMVLLFLAFLHHLFYWDVWFIYNVCLAKVKGYRSLSTSQTFYDAYISYDTKDASVTDWVINELRYHLEESRDKNVLLCLEERDWDPGLAIIDNLMQSINQSKKTVFVLTKKYAKSWNFKTAFYLALQRLMDENMDVIIFILLEPVLQHSQYLRLRQRICKSSILQWPDNPKAEGLFWQTLRNVVLTENDSRYNNMYVDSIKQYMSLLNCENSCGSSQSESDCCVAMASSCSAVTKDDSVGGTASTGNLSSSFMEEIQGYDVEFDPPLESKYECPICLMALREAVQTPCGHRFCKACIIKSIRDAGHKCPVDNEILLENQLFPDNFAKREILSLMVKCPNEGCLHKMELRHLEDHQAHCEFALMDCPQCQRPFQKFHINIHILKDCPRRQVSCDNCAASMAFEDKEIHDQNCPLANVICEYCNTILIREQMPNHYDLDCPTAPIPCTFSTFGCHEKMQRNHLARHLQENTQSHMRMLA
modifications: CER117, amino acids 1-22 are signal peptide
elimination of SCC152 cells, time lapse imaging: enhanced elimination of SCC152 cells
elimination of SCC152 cells (GFP quantification): nearly complete elimination

B2: CER104: Chimeric engulfment receptor: Tim4 binding, Tim4 transmembrane, TLR8 and DAP12 signaling; SEQ ID NO: 139 (protein)
chain: MSKGLLLLWLVTELWWLYLTPAASEDTIIGFLGQPVTLPCHYLSWSQSRNSMCWGKGSCPNSKCNAELLRTDGTRIISRKSTKYTLLGKVQFGEVSLTISNTNRGDSGVYCCRIEVPGWFNDVKKNVRLELRRATTTKKPTTTTRPTTTPYVTTTTPELLPTTVMTTSVLPTTTPPQTLATTAFSTAVTTCPSTTPGSFSQETTKGSAFTTESETLPASNHSQRSMMTISTDIAVLRPTGSNPGILPSTSQLTTQKTTLTTSESLQKTTKSHQINSRQTILIIACCVGFVLMVLLFLAFLHHLFYWDVWFIYNVCLAKVKGYRSLSTSQTFYDAYISYDTKDASVTDWVINELRYHLEESRDKNVLLCLEERDWDPGLAIIDNLMQSINQSKKTVFVLTKKYAKSWNFKTAFYLALQRLMDENMDVIIFILLEPVLQHSQYLRLRQRICKSSILQWPDNPKAEGLFWQTLRNVVLTENDSRYNNMYVDSIKQYYFLGRLVPRGRGAAEAATRKQRITETESPYQELQGQRSDVYSDLNTQRPYYK
modifications: CER104, amino acids 1-22 are signal peptide
number of SCC152 cells in time lapse imaging: decreasing in numbers over time

B3: CER116: Chimeric engulfment receptor: Tim4 binding, Tim4 transmembrane, TRAF6 and TLR8 signaling; SEQ ID NO: 152 (protein)
chain: MSKGLLLLWLVTELWWLYLTPAASEDTIIGFLGQPVTLPCHYLSWSQSRNSMCWGKGSCPNSKCNAELLRTDGTRIISRKSTKYTLLGKVQFGEVSLTISNTNRGDSGVYCCRIEVPGWFNDVKKNVRLELRRATTTKKPTTTTRPTTTPYVTTTTPELLPTTVMTTSVLPTTTPPQTLATTAFSTAVTTCPSTTPGSFSQETTKGSAFTTESETLPASNHSQRSMMTISTDIAVLRPTGSNPGILPSTSQLTTQKTTLTTSESLQKTTKSHQINSRQTILIIACCVGFVLMVLLFLAFLMSLLNCENSCGSSQSESDCCVAMASSCSAVTKDDSVGGTASTGNLSSSFMEEIQGYDVEFDPPLESKYECPICLMALREAVQTPCGHRFCKACIIKSIRDAGHKCPVDNEILLENQLFPDNFAKREILSLMVKCPNEGCLHKMELRHLEDHQAHCEFALMDCPQCQRPFQKFHINIHILKDCPRRQVSCDNCAASMAFEDKEIHDQNCPLANVICEYCNTILIREQMPNHYDLDCPTAPIPCTFSTFGCHEKMQRNHLARHLQENTQSHMRMLAHHLFYWDVWFIYNVCLAKVKGYRSLSTSQTFYDAYISYDTKDASVTDWVINELRYHLEESRDKNVLLCLEERDWDPGLAIIDNLMQSINQSKKTVFVLTKKYAKSWNFKTAFYLALQRLMDENMDVIIFILLEPVLQHSQYLRLRQRICKSSILQWPDNPKAEGLFWQTLRNVVLTENDSRYNNMYVDSIKQY
modifications: CER116, amino acids 1-22 are signal peptide
elimination of SCC152 cells, time lapse imaging: enhanced elimination of SCC152 cells
number of SCC152 cells in time lapse imaging: decreasing in numbers over time
elimination of SCC152 cells (GFP quantification): nearly complete elimination
